This note sets out measurements from article PMC2651628.

One test deals with CD44-CFP (UniProt P16070). Nature of the test: FRET or BRET; u-adFRET (acceptor-depletion FRET with linear spectral unmixing) in U251MG cells co-transfected with YFP (Venus) acceptor and CFP donor fusions, fixed in 4% paraformaldehyde; FRET efficiency by region of the cell (cytosol, peripheral, focal adhesion). On the technique in general: BRET reads energy transfer from a luciferase to a nearby fluorophore.

Another test has as its target CFP-vinculin (UniProt P18206). Described as above.
Sequence of UniProt P18206 (P18206 whole entry): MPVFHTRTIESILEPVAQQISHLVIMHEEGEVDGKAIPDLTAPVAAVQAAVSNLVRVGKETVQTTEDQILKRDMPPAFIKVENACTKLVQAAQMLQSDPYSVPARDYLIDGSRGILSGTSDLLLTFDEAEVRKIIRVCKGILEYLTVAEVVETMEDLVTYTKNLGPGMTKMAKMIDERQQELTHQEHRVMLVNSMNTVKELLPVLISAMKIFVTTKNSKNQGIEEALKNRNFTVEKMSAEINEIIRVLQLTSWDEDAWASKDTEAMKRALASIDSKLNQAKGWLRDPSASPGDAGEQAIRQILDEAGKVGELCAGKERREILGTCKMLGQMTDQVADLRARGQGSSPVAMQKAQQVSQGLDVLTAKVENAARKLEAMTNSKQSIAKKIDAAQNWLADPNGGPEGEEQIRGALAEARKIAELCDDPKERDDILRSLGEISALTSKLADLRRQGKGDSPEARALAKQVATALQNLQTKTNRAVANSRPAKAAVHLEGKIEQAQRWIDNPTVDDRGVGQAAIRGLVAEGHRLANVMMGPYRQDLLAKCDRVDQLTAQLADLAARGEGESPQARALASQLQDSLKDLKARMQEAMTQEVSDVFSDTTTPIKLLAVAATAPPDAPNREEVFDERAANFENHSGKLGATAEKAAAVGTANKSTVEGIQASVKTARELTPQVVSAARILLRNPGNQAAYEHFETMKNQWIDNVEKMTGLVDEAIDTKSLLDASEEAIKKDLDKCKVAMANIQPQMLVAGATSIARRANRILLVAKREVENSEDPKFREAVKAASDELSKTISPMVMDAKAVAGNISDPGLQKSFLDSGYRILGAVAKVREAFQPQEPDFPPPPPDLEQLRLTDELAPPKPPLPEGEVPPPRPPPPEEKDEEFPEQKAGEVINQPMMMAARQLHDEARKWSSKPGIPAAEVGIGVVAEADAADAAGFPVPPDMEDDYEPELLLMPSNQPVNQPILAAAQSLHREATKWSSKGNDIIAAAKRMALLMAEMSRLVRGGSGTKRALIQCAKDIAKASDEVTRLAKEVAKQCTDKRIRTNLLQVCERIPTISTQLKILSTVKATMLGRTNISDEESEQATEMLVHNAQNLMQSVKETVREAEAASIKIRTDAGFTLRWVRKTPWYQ

Sequence of UniProt P16070 (P16070 21-742): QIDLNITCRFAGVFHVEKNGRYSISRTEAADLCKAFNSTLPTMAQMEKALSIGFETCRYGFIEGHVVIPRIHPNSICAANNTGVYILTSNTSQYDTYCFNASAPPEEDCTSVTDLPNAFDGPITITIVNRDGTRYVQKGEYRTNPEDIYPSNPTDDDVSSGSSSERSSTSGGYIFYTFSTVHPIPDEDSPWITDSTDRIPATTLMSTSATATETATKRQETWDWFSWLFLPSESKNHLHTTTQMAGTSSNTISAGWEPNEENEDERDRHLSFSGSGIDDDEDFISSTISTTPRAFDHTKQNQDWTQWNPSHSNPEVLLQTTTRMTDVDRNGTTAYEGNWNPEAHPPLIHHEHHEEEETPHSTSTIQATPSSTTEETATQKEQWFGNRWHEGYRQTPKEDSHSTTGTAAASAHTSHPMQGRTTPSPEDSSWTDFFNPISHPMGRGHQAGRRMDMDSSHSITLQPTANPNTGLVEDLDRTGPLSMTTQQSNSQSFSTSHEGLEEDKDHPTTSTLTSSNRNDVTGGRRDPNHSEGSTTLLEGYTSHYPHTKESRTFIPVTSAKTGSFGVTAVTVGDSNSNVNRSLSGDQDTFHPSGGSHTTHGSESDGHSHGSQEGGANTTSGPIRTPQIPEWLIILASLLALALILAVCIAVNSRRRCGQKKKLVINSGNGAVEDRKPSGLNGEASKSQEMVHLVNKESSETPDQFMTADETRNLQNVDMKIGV

In the test with CD44-CFP, “YFP-hMena (human Mena fused to monomeric Venus) (from UniProt Q8N8S7 1-591) (natural protein)” showed an FRET efficiency (cytosol) of -7 and an FRET efficiency (peripheral) of -2. Besides, the FRET efficiency (FA, focal adhesion) with CFP-vinculin turned out to be 19.
